# Assay results from PMC7154858, “Transcriptional and Biochemical Characterization of Cytosolic Pyruvate Kinases in Arabidopsis thaliana” (Plants, 2020).
# T1: cytosolic pyruvate kinase 4 (cPK4, At2g36580) (Arabidopsis thaliana) (UniProt Q9SJQ0)
# T1 sequence: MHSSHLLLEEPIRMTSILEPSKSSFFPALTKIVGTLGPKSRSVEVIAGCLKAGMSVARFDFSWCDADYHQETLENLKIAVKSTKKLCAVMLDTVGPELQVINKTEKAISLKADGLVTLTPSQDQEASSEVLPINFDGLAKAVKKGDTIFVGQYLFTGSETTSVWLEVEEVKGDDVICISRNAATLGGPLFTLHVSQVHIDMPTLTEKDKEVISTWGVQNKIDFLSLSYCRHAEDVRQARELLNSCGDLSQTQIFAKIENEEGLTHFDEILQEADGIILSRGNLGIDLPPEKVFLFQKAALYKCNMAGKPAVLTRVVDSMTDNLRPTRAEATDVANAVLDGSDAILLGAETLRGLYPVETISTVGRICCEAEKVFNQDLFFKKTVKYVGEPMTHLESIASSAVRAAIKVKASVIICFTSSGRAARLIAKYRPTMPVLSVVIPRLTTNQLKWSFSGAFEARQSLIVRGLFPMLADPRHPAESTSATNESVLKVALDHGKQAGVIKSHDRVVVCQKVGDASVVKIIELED
# T2: cytosolic pyruvate kinase 2 (cPK2, At5g56350) (Arabidopsis thaliana) (UniProt Q9FM97)
# T2 sequence: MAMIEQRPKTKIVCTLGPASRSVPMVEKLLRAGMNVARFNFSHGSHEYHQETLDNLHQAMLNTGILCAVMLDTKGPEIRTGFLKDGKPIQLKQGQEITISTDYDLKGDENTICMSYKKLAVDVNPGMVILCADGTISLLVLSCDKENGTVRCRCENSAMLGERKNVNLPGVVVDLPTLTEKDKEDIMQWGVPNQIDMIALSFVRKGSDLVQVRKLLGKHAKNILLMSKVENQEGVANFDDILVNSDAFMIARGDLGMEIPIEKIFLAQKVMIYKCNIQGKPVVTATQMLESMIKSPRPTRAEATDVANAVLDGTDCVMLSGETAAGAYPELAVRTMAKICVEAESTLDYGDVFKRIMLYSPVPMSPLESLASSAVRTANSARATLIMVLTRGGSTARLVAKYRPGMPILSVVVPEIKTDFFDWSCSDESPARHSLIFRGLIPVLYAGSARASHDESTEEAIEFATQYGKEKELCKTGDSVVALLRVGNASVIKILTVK
# Legend:
# [1] = biological target: T1, cytosolic pyruvate kinase 4 (cPK4, At2g36580) (Arabidopsis thaliana)
# [2] = biological target: T2, cytosolic pyruvate kinase 2 (cPK2, At5g56350) (Arabidopsis thaliana)
# purified protein [3] = substrate: C=C(OP(=O)(O)O)C(=O)O; experiment: purified protein; assay type: biochemical, Arabidopsis thaliana; details: co-substrate ADP, 10 mM MgCl2, 50 mM KCl, 5% PEG 200, pH 7.5, 25 °C
# purified protein [4] = substrate: Nc1ncnc2c1ncn2[C@@H]1O[C@H](COP(=O)(O)OP(=O)(O)O)[C@@H](O)[C@H]1O; experiment: purified protein; assay type: biochemical, Arabidopsis thaliana; details: co-substrate PEP, 10 mM MgCl2, 50 mM KCl, 5% PEG 200, pH 7.5, 25 °C
Molecule,Km (purified protein [3]) [µM],kcat (purified protein [3]) [s⁻¹],Km (purified protein [4]) [µM],kcat (purified protein [4]) [s⁻¹],other results
cytosolic pyruvate kinase 3 (cPK3) (from UniProt Q9FFP6 1-510) (enzyme),,,,,"specific pyruvate kinase activity (LDH-coupled assay, substrate saturating conditions) of a mixture of equal ratios of cPK4 and cPK3, compared to the single enzymes [1]: 20 % increase; specific pyruvate kinase activity (LDH-coupled assay, substrate saturating conditions) of a mixture of equal ratios of cPK2 and cPK3, compared to the single enzymes [2]: 20 % increase"
"cPK2 (Arabidopsis thaliana) (protein, full-length cDNA in pET16b, N-terminal His tag (6x in Results, 5x in Methods), E. coli BLR21, Ni-NTA; primer begins MAMIEQ) MAMIEQRPKTKIVCTLGPASRSVPMVEKLLRAGMNVARFNFSHGSHEYHQETLDNLHQAMLNTGILCAVMLDTKGPEIRTGFLKDGKPIQLKQGQEITISTDYDLKGDENTICMSYKKLAVDVNPGMVILCADGTISLLVLSCDKENGTVRCRCENSAMLGERKNVNLPGVVVDLPTLTEKDKEDIMQWGVPNQIDMIALSFVRKGSDLVQVRKLLGKHAKNILLMSKVENQEGVANFDDILVNSDAFMIARGDLGMEIPIEKIFLAQKVMIYKCNIQGKPVVTATQMLESMIKSPRPTRAEATDVANAVLDGTDCVMLSGETAAGAYPELAVRTMAKICVEAESTLDYGDVFKRIMLYSPVPMSPLESLASSAVRTANSARATLIMVLTRGGSTARLVAKYRPGMPILSVVVPEIKTDFFDWSCSDESPARHSLIFRGLIPVLYAGSARASHDESTEEAIEFATQYGKEKELCKTGDSVVALLRVGNASVIKILTVK",760,3.05,30,3.05,
"cPK3 (Arabidopsis thaliana) (protein, printed locus At5g56350 duplicates cPK2 (apparent misprint); primer begins MSNIDIE, unlike cPK2; full-length cDNA in pET16b, N-terminal His tag (6x/5x), E. coli BLR21, Ni-NTA) MSNIDIEGILKELPNDGRTPKTKIVCTLGPASRSVTMIEKLLKAGMNVARFNFSHGSHEYHQETLDNLRTAMQNTGILAAVMLDTKGPEIRTGFLKDGNPIQLKEGQEITITTDYDIKGDEKTISMSYKKLPVDVKPGNTILCADGSISLAVVSCDPNAGTVICRCENTAMLGERKNVNLPGVVVDLPTLTDKDVEDILKWGVPNNIDMIALSFVRKGSDLVNVRKVLGSHSKSIMLMSKVENQEGVLNFDEILRETDAFMVARGDLGMEIPIEKIFLAQKMMIYKCNLAGKPVVTATQMLESMIKSPRPTRAEATDVANAVLDGTDCVMLSGESAAGAYPEIAVKTMAKICIEAESSLDYNTIFKEMIRATPLPMSTLESLASSAVRTANKAKAKLIIVLTRGGTTAKLVAKYRPAVPILSVVVPVFTSDTFNWSCSDESPARHSLIYRGLIPVLGEGSAKATDSESTEEIIESALKSATEKGLCNHGDAVVALHRIGAASVIKICVVK",170,2.4,140,2.4,
"cytosolic pyruvate kinase 5 (cPK5, At3g52990) (enzyme) MHSSHLLLEEPIRMASILEPSKSSFFPALTKIVGTLGPKSRSVEALSGCLKAGMSVARFDFSWGDADYHQETLDNLKVAVRSTKKLCAVMLDTVGPELQVINKSEKAITLKADGLVTLTPNQDQEASSEVLPINFNGLAKAVKKGDTIFVGQYLFTGSETTSVWLEVDEVKGDDVICLSRNAATLAGSLFTLHSSQVHIDLPTLTEKDKEVISTWGVQNKIDFLSLSYCRHAEDVRQTREMLKKLGDLSQTQIFAKIENVEGLTHFDEILQEADGIILSRGNLGIDLPPEKVFLFQKAALYKCNMAGKPAVLTRVVDSMTDNLRPTRAEATDVANAVLDGSDAILLGAETLRGLYPVETISTVGRICAEAEKVFNQDLYFKKTVKYVGEPMTHLESIASSAVRAAIKVKASVIICFTSSGRAARLIAKYRPTMPVISVVIPRVKTNQLKWSFSGAFEARQSLIVRGLFPMLADPRHPAESTSATNESVLKVALDHGKHAGVIKSHDRVVVCQKVGDASVVKIIELED",,,,,"specific pyruvate kinase activity (LDH-coupled assay, substrate saturating conditions) of a batch with equal ratios of cPK4 and cPK5, compared to cPK4 alone [1]: 180 % increase"
"cPK5 (Arabidopsis thaliana) (protein, full-length cDNA in pET16b, N-terminal His tag (6x in Results, 5x in Methods), E. coli BLR21, Ni-NTA; primer begins MHSSHL) MHSSHLLLEEPIRMASILEPSKSSFFPALTKIVGTLGPKSRSVEALSGCLKAGMSVARFDFSWGDADYHQETLDNLKVAVRSTKKLCAVMLDTVGPELQVINKSEKAITLKADGLVTLTPNQDQEASSEVLPINFNGLAKAVKKGDTIFVGQYLFTGSETTSVWLEVDEVKGDDVICLSRNAATLAGSLFTLHSSQVHIDLPTLTEKDKEVISTWGVQNKIDFLSLSYCRHAEDVRQTREMLKKLGDLSQTQIFAKIENVEGLTHFDEILQEADGIILSRGNLGIDLPPEKVFLFQKAALYKCNMAGKPAVLTRVVDSMTDNLRPTRAEATDVANAVLDGSDAILLGAETLRGLYPVETISTVGRICAEAEKVFNQDLYFKKTVKYVGEPMTHLESIASSAVRAAIKVKASVIICFTSSGRAARLIAKYRPTMPVISVVIPRVKTNQLKWSFSGAFEARQSLIVRGLFPMLADPRHPAESTSATNESVLKVALDHGKHAGVIKSHDRVVVCQKVGDASVVKIIELED",50,6.68,340,6.68,
"cPK4 (Arabidopsis thaliana) (protein, full-length cDNA in pET16b, N-terminal His tag (6x in Results, 5x in Methods), E. coli BLR21, Ni-NTA; primer begins MHSSHL) MHSSHLLLEEPIRMTSILEPSKSSFFPALTKIVGTLGPKSRSVEVIAGCLKAGMSVARFDFSWCDADYHQETLENLKIAVKSTKKLCAVMLDTVGPELQVINKTEKAISLKADGLVTLTPSQDQEASSEVLPINFDGLAKAVKKGDTIFVGQYLFTGSETTSVWLEVEEVKGDDVICISRNAATLGGPLFTLHVSQVHIDMPTLTEKDKEVISTWGVQNKIDFLSLSYCRHAEDVRQARELLNSCGDLSQTQIFAKIENEEGLTHFDEILQEADGIILSRGNLGIDLPPEKVFLFQKAALYKCNMAGKPAVLTRVVDSMTDNLRPTRAEATDVANAVLDGSDAILLGAETLRGLYPVETISTVGRICCEAEKVFNQDLFFKKTVKYVGEPMTHLESIASSAVRAAIKVKASVIICFTSSGRAARLIAKYRPTMPVLSVVIPRLTTNQLKWSFSGAFEARQSLIVRGLFPMLADPRHPAESTSATNESVLKVALDHGKQAGVIKSHDRVVVCQKVGDASVVKIIELED",170,4.0,70,4.0,
"cytosolic pyruvate kinase 1 (cPK1, At5g08570) (enzyme) MSNIDIEGILKELPNDGRIPKTKIVCTLGPASRTVSMIEKLLKAGMNVARFNFSHGSHEYHQETLDNLRSAMHNTGILAAVMLDTKGPEIRTGFLKDGNPIQLKEGQEITITTDYDIQGDESTISMSYKKLPLDVKPGNTILCADGSISLAVLSCDPESGTVRCRCENSAMLGERKNVNLPGVVVDLPTLTDKDIEDILGWGVPNSIDMIALSFVRKGSDLVNVRKVLGSHAKSIMLMSKVENQEGVINFDEILRETDAFMVARGDLGMEIPIEKIFLAQKLMIYKCNLAGKPVVTATQMLESMIKSPRPTRAEATDVANAVLDGTDCVMLSGESAAGAYPEIAVKVMAKICIEAESSLDYNTIFKEMIRATPLPMSPLESLASSAVRTANKARAKLIIVLTRGGSTANLVAKYRPAVPILSVVVPVMTTDSFDWSCSDESPARHSLIYRGLIPMLAEGSAKATDSEATEVIIEAALKSATQRGLCNRGDAIVALHRIGAASVIKICVVK",,,,,"specific pyruvate kinase activity (LDH-coupled assay, substrate saturating conditions) of a mixture of equal ratios of cPK1 and cPK4, normalised to cPK4 alone [1]: 75 % increase; specific pyruvate kinase activity (LDH-coupled assay, substrate saturating conditions) of a mixture of equal ratios of cPK1 and cPK2, compared to cPK2 alone [2]: 70 % increase"
"cPK1 (Arabidopsis thaliana) (protein, full-length cDNA in pET16b, N-terminal His tag (6x in Results, 5x in Methods), E. coli BLR21, Ni-NTA; primer begins MSNIDIEG) MSNIDIEGILKELPNDGRIPKTKIVCTLGPASRTVSMIEKLLKAGMNVARFNFSHGSHEYHQETLDNLRSAMHNTGILAAVMLDTKGPEIRTGFLKDGNPIQLKEGQEITITTDYDIQGDESTISMSYKKLPLDVKPGNTILCADGSISLAVLSCDPESGTVRCRCENSAMLGERKNVNLPGVVVDLPTLTDKDIEDILGWGVPNSIDMIALSFVRKGSDLVNVRKVLGSHAKSIMLMSKVENQEGVINFDEILRETDAFMVARGDLGMEIPIEKIFLAQKLMIYKCNLAGKPVVTATQMLESMIKSPRPTRAEATDVANAVLDGTDCVMLSGESAAGAYPEIAVKVMAKICIEAESSLDYNTIFKEMIRATPLPMSPLESLASSAVRTANKARAKLIIVLTRGGSTANLVAKYRPAVPILSVVVPVMTTDSFDWSCSDESPARHSLIYRGLIPMLAEGSAKATDSEATEVIIEAALKSATQRGLCNRGDAIVALHRIGAASVIKICVVK",60,1.53,150,1.53,
